# Reference: publication PMC10457771
# Where “and” joins values, the source holds several entries; their conditions need not be identical. Equal entries are not always repeated.
# Experiments:
# [1] = target: major capsid protein (MCP), gp54 (Vibrio phage XM1); assay: cryo-EM structure; purified XM1 virions in SM buffer; icosahedrally averaged reconstruction of the capsid, 3.2Å
# [2] = target: minor capsid protein (decoration protein, Dec), gp53 (Vibrio phage XM1); assay: as above
# [3] = target: tail sheath protein, gp6 (Vibrio phage XM1); assay: cryo-EM structure; purified XM1 virions in SM buffer; 6-fold-symmetric reconstruction of the distal part of the extended tail (baseplate, part of tail tube and sheath), 3.2Å; interfaces analysed with PISA
# [4] = target: tail sheath protein, gp6 (Vibrio phage XM1); assay: cryo-EM structure; empty XM1 particles with contracted tail sheath (post-infection form); 6-fold-symmetric reconstruction, 9.1Å; models of the extended state fitted (Situs ddforge, Coot)
# [5] = target: tail terminator protein, gp5 (Vibrio phage XM1); assay: cryo-EM structure; purified XM1 virions in SM buffer; 6-fold-symmetric reconstruction of the portal and neck region and 12-fold-symmetric reconstruction of the portal, 3.6Å; interfaces analysed with PISA
# [6] = target: hexameric head completion protein, gp4 (Vibrio phage XM1); assay: as above
# [7] = target: dodecameric head completion protein, gp1 (Vibrio phage XM1); assay: as above
# [8] = target: tail tube protein, gp7 (Vibrio phage XM1); assay: cryo-EM structure; purified XM1 virions in SM buffer; 6-fold-symmetric reconstruction of the distal part of the extended tail (baseplate, part of tail tube and sheath), 3.2Å; interfaces analysed with PISA
# [9] = target: collar spike protein, gp40 (Vibrio phage XM1); assay: cryo-EM structure; purified XM1 virions in SM buffer; 6-fold-symmetric reconstruction of the portal and neck region and 12-fold-symmetric reconstruction of the portal, 3.6Å; interfaces analysed with PISA
# [10] = target: portal protein, gp49 (Vibrio phage XM1); assay: as above
# [11] = target: central baseplate organization protein, gp11 (Vibrio phage XM1); assay: cryo-EM structure; purified XM1 virions in SM buffer; 6-fold-symmetric reconstruction of the distal part of the extended tail (baseplate, part of tail tube and sheath), 3.2Å; interfaces analysed with PISA
substance,measurement,setting,value
"major capsid protein (MCP), gp54 (natural protein)",stoichiometry N,[1],6 and 5
"minor capsid protein (decoration protein, Dec), gp53 (natural protein)",stoichiometry N,[2],3
"tail sheath protein, gp6 (natural protein)",stoichiometry N,[3],6
same,stoichiometry N,[4],6
"tail terminator protein, gp5 (natural protein)",stoichiometry N,[5],6
"hexameric head completion protein, gp4 (natural protein)",stoichiometry N,[6],6
"dodecameric head completion protein, gp1 (natural protein)",stoichiometry N,[7],12
"tail tube protein, gp7 (natural protein)",stoichiometry N,[8],6
"collar spike protein, gp40 (natural protein)",stoichiometry N,[9],3
"portal protein, gp49 (natural protein)",stoichiometry N,[10],12
"central baseplate organization protein, gp11 (natural protein)",stoichiometry N,[11],6
